Results taken from publication PMC10216065.

Target: T1, E. coli SufE (E. coli), P76194
T1 chain: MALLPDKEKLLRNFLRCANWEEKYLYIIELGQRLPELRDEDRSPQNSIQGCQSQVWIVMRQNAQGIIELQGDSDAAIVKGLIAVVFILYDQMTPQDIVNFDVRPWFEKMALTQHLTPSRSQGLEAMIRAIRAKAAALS
Experiment: cross-linking; disulfide-linked species after treatment with 1 mM H2O2; SDS-PAGE under reducing (+DTT) and non-reducing (-DTT) conditions
Details: remark: other sources report otherwise

B1: E. coli SufE, P76194 1-138 (natural protein)
chain: MALLPDKEKLLRNFLRCANWEEKYLYIIELGQRLPELRDEDRSPQNSIQGCQSQVWIVMRQNAQGIIELQGDSDAAIVKGLIAVVFILYDQMTPQDIVNFDVRPWFEKMALTQHLTPSRSQGLEAMIRAIRAKAAALS
Q: For B1, which percent of total SufE as disulfide-bonded homodimer is on record?
A: 34%
